# Results: the supplement of paper PMC9112550, “Optimization of the antimicrobial peptide Bac7 by deep mutational scanning” (BMC Biology, 2022)
# Tested on: Escherichia coli TOP10
# Experiment: shrunken log2 fold change of peptide-encoding DNA abundance (4.5 h post-induction vs induction); higher = less antimicrobial activity (less host growth inhibition)
# Settings: time post-induction: 4.5 h; library: site-saturation at positions 5, 18, 19, 20
# 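Also: peptides expressed intracellularly from a pBAD plasmid library in pooled LB shake-flask culture, induced with 0.3% L-arabinose, DNA abundance read by NGS, three biological replicates, DESeq2 with apeglm shrinkage.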
row,Sequence,shrunken log2 fold change
1,RRIRERPPRLPRPRPRPQEVPRP,-0.0156
2,RRIRKRPPRLPRPRPRPHSFPRP,-0.0644
3,RRIRQRPPRLPRPRPRPTFLPRP,-0.358
4,RRIRLRPPRLPRPRPRPPLIPRP,-0.258
5,RRIRRRPPRLPRPRPRPKKFPRP,-0.205
6,RRIRPRPPRLPRPRPRPCQKPRP,-0.00783
7,RRIRFRPPRLPRPRPRPFKTPRP,-0.164
8,RRIRHRPPRLPRPRPRPPHHPRP,-0.0583
9,RRIRQRPPRLPRPRPRPCHVPRP,-0.167
10,RRIRFRPPRLPRPRPRPIRLPRP,0.0615
11,RRIRNRPPRLPRPRPRPNTWPRP,-0.382
12,RRIRFRPPRLPRPRPRPKFCPRP,0.00718
13,RRIRNRPPRLPRPRPRPFNFPRP,0.125
14,RRIRMRPPRLPRPRPRPFEVPRP,-0.0748
15,RRIRERPPRLPRPRPRPTCYPRP,-0.673
16,RRIRTRPPRLPRPRPRPPWCPRP,0.28
17,RRIRRRPPRLPRPRPRPKSQPRP,0.104
18,RRIRFRPPRLPRPRPRPVHKPRP,-0.142
19,RRIRLRPPRLPRPRPRPQKNPRP,-0.154
20,RRIRCRPPRLPRPRPRPWPFPRP,-0.121
21,RRIRKRPPRLPRPRPRPNAFPRP,0.0186
22,RRIRARPPRLPRPRPRPIRTPRP,0.0627
23,RRIRWRPPRLPRPRPRPYFSPRP,-0.722
24,RRIRHRPPRLPRPRPRPRMIPRP,-8.79e-05
25,RRIRCRPPRLPRPRPRPQPCPRP,0.0038

row,Sequence,shrunken log2 fold change
1,RRIRYRPPRLPRPRPRPSPVPRP,-0.612
2,RRIRPRPPRLPRPRPRPLFVPRP,-0.176
3,RRIRIRPPRLPRPRPRPNHVPRP,-0.278
4,RRIRSRPPRLPRPRPRPEPNPRP,0.374
5,RRIRYRPPRLPRPRPRPMRTPRP,0.176
6,RRIRIRPPRLPRPRPRPSSNPRP,-0.313
7,RRIRYRPPRLPRPRPRPAKVPRP,0.00738
8,RRIRHRPPRLPRPRPRPCYDPRP,-0.00778
9,RRIRLRPPRLPRPRPRPIQPPRP,0.0112
10,RRIRGRPPRLPRPRPRPGLDPRP,1.24
11,RRIRCRPPRLPRPRPRPRSNPRP,-0.349
12,RRIRARPPRLPRPRPRPDGSPRP,0.0886
13,RRIRTRPPRLPRPRPRPPKLPRP,-0.0543
14,RRIRTRPPRLPRPRPRPNCGPRP,0.0396
15,RRIRHRPPRLPRPRPRPNKIPRP,-0.622
16,RRIRHRPPRLPRPRPRPLDSPRP,-0.448
17,RRIRTRPPRLPRPRPRPIVGPRP,-0.0587
18,RRIRDRPPRLPRPRPRPGKGPRP,0.0189
19,RRIRGRPPRLPRPRPRPEVDPRP,1.84
20,RRIRSRPPRLPRPRPRPDSSPRP,-0.418
21,RRIRFRPPRLPRPRPRPHRFPRP,-0.0456
22,RRIRVRPPRLPRPRPRPASCPRP,-0.0873
23,RRIRWRPPRLPRPRPRPAINPRP,0.185
24,RRIRSRPPRLPRPRPRPNHAPRP,-0.278
25,RRIRYRPPRLPRPRPRPPNAPRP,0.153

row,Sequence,shrunken log2 fold change
1,RRIRYRPPRLPRPRPRPYRNPRP,-0.0228
2,RRIRTRPPRLPRPRPRPHHDPRP,-0.469
3,RRIRYRPPRLPRPRPRPVYQPRP,-0.341
4,RRIRRRPPRLPRPRPRPIRSPRP,0.022
5,RRIRLRPPRLPRPRPRPNYLPRP,-0.377
6,RRIRGRPPRLPRPRPRPKIDPRP,0.372
7,RRIRGRPPRLPRPRPRPGASPRP,0.934
8,RRIRWRPPRLPRPRPRPADWPRP,0.345
9,RRIRMRPPRLPRPRPRPGCVPRP,0.967
10,RRIRDRPPRLPRPRPRPCSFPRP,-0.0466
11,RRIRLRPPRLPRPRPRPGLKPRP,0.12
12,RRIRDRPPRLPRPRPRPNWTPRP,0.0279
13,RRIRVRPPRLPRPRPRPDKGPRP,-0.591
14,RRIRGRPPRLPRPRPRPRDQPRP,1.26
15,RRIRQRPPRLPRPRPRPILVPRP,-0.0138
16,RRIRIRPPRLPRPRPRPMHAPRP,0.325
17,RRIRTRPPRLPRPRPRPMYEPRP,-0.375
18,RRIRMRPPRLPRPRPRPMLNPRP,-0.0171
19,RRIRQRPPRLPRPRPRPGPTPRP,0.0273
20,RRIRHRPPRLPRPRPRPPDAPRP,0.348
21,RRIRIRPPRLPRPRPRPKRGPRP,0.2
22,RRIRQRPPRLPRPRPRPEDHPRP,-0.0311
23,RRIRWRPPRLPRPRPRPKAPPRP,0.378
24,RRIRYRPPRLPRPRPRPLRNPRP,-0.277
25,RRIRPRPPRLPRPRPRPETVPRP,0.207

row,Sequence,shrunken log2 fold change
1,RRIRFRPPRLPRPRPRPNQDPRP,-0.361
2,RRIRYRPPRLPRPRPRPFWEPRP,0.13
3,RRIRMRPPRLPRPRPRPIRWPRP,0.632
4,RRIRMRPPRLPRPRPRPFMAPRP,-0.236
5,RRIRWRPPRLPRPRPRPPYNPRP,-0.221
6,RRIRCRPPRLPRPRPRPQEKPRP,0.0587
7,RRIRQRPPRLPRPRPRPMWMPRP,0.0583
8,RRIRMRPPRLPRPRPRPEYKPRP,0.359
9,RRIRCRPPRLPRPRPRPNWLPRP,-0.115
10,RRIRERPPRLPRPRPRPKGDPRP,-0.0914
11,RRIRMRPPRLPRPRPRPINIPRP,-0.0393
12,RRIRGRPPRLPRPRPRPHFCPRP,0.117
13,RRIRKRPPRLPRPRPRPVCRPRP,0.245
14,RRIRERPPRLPRPRPRPYFVPRP,-0.892
15,RRIRHRPPRLPRPRPRPLPYPRP,-0.137
16,RRIRARPPRLPRPRPRPKWYPRP,0.056
17,RRIRLRPPRLPRPRPRPAPGPRP,0.432
18,RRIRLRPPRLPRPRPRPTCEPRP,0.497
19,RRIRARPPRLPRPRPRPGFRPRP,0.555
20,RRIRMRPPRLPRPRPRPKNQPRP,0.618
21,RRIRYRPPRLPRPRPRPLPDPRP,-0.108
22,RRIRIRPPRLPRPRPRPMWWPRP,0.141
23,RRIRHRPPRLPRPRPRPRPFPRP,-0.18
24,RRIRIRPPRLPRPRPRPRYVPRP,-0.45
25,RRIRHRPPRLPRPRPRPYHGPRP,-0.0161

row,Sequence,shrunken log2 fold change
1,RRIRDRPPRLPRPRPRPNAQPRP,0.325
2,RRIRGRPPRLPRPRPRPCMWPRP,0.29
3,RRIRQRPPRLPRPRPRPPVAPRP,0.121
4,RRIRFRPPRLPRPRPRPFNMPRP,-0.314
5,RRIRERPPRLPRPRPRPMIEPRP,-0.184
6,RRIRQRPPRLPRPRPRPYSGPRP,-0.126
7,RRIRPRPPRLPRPRPRPMGSPRP,-0.0938
8,RRIRDRPPRLPRPRPRPEWLPRP,0.382
9,RRIRRRPPRLPRPRPRPCVLPRP,-0.027
10,RRIRNRPPRLPRPRPRPIEGPRP,-0.0908
11,RRIRQRPPRLPRPRPRPTWKPRP,0.00778
12,RRIRIRPPRLPRPRPRPRMLPRP,-0.177
13,RRIRGRPPRLPRPRPRPEENPRP,1.21
14,RRIRCRPPRLPRPRPRPGAKPRP,0.309
15,RRIRERPPRLPRPRPRPKIHPRP,-0.233
16,RRIRIRPPRLPRPRPRPTKTPRP,0.12
17,RRIRARPPRLPRPRPRPAETPRP,0.398
18,RRIRRRPPRLPRPRPRPCIGPRP,-0.328
19,RRIRCRPPRLPRPRPRPANAPRP,-0.0408
20,RRIRFRPPRLPRPRPRPDITPRP,-0.0339
21,RRIRSRPPRLPRPRPRPNQMPRP,0.0306
22,RRIRIRPPRLPRPRPRPGCAPRP,0.185
23,RRIRMRPPRLPRPRPRPLMKPRP,0.313
24,RRIRGRPPRLPRPRPRPWLYPRP,0.285
25,RRIRNRPPRLPRPRPRPQMHPRP,-0.108

row,Sequence,shrunken log2 fold change
1,RRIRCRPPRLPRPRPRPSMCPRP,-0.14
2,RRIRYRPPRLPRPRPRPWYLPRP,-0.268
3,RRIRARPPRLPRPRPRPWIHPRP,-0.264
4,RRIRPRPPRLPRPRPRPQFCPRP,-0.153
5,RRIRNRPPRLPRPRPRPYFVPRP,-0.312
6,RRIRGRPPRLPRPRPRPESLPRP,0.595
7,RRIRSRPPRLPRPRPRPSRVPRP,0.107
8,RRIRKRPPRLPRPRPRPEAPPRP,0.957
9,RRIRYRPPRLPRPRPRPPNPPRP,-0.145
10,RRIRLRPPRLPRPRPRPCVLPRP,-0.44
11,RRIRCRPPRLPRPRPRPREMPRP,0.245
12,RRIRDRPPRLPRPRPRPDNFPRP,0.0301
13,RRIRTRPPRLPRPRPRPYCKPRP,-0.129
14,RRIRPRPPRLPRPRPRPHATPRP,0.323
15,RRIRTRPPRLPRPRPRPKSMPRP,-0.62
16,RRIRRRPPRLPRPRPRPMCEPRP,0.516
17,RRIRTRPPRLPRPRPRPHAYPRP,-0.635
18,RRIRGRPPRLPRPRPRPSCGPRP,0.451
19,RRIRSRPPRLPRPRPRPTHSPRP,0.186
20,RRIRKRPPRLPRPRPRPGKTPRP,-0.0179
21,RRIRGRPPRLPRPRPRPWCSPRP,-0.0965
22,RRIRERPPRLPRPRPRPTLLPRP,-0.137
23,RRIRPRPPRLPRPRPRPEAIPRP,0.102
24,RRIRWRPPRLPRPRPRPKGFPRP,0.437
25,RRIRHRPPRLPRPRPRPWAQPRP,0.0333
